Data reported in patent US20090162378A1.

Assays:
[1] = target: HCMV RC256 particles (human cytomegalovirus strain RC256) (human cytomegalovirus); assay: cell-based or functional assay
[2] = target: HCMV RC256 particles (human cytomegalovirus strain RC256) (human cytomegalovirus); assay: phage ELISA; plate coated with HCMV RC256 against a control plate coated with lysate of E. coli transfected with pET-22b; detection with HRP anti-M13

B1: HCMV-20 scFv antibody, purified His-tag fused polypeptide expressed in E. coli (scFv)
scFv: MAQVQLQESGPGLVKPSGTLSLTCAVSGGSISSSNWWSWVRQPPGKGLEWIGEIYHSGSTNYNPSLKSRVTISVDKSKNQFSLKLSSVTAADTAVYYCAREGSYEAFDYWGQGTLVTVSSGGGGSGGGGSGGGGSNFMLTQPHSVSESPGKTVTISCTRSSGSIASNYVQWYQQRPGSAPSTVIYDDNQRPSGVPDRFSGSIDSSSNSASLTISGLKTEDEADYYCQSYDSSNHGVVFGGGTKLTVLGAA
plaque number, Test 1, 1.0 uM HCMV-20 (virus only: 152) [1]: 92 plaques | plaque number, Test 1, 2.0 uM HCMV-20 (virus only: 152) [1]: 36 plaques | plaque number, Test 1, 4.1 uM HCMV-20 (virus only: 152) [1]: 23 plaques | plaque number, Test 1, 8.1 uM HCMV-20 (virus only: 152) [1]: 20 plaques | plaque number, Test 1, 16.3 uM HCMV-20 (virus only: 152) [1]: 15 plaques | plaque number, Test 2, 1.0 uM HCMV-20 (virus only: 139) [1]: 93 plaques | plaque number, Test 2, 2.0 uM HCMV-20 (virus only: 139) [1]: 42 plaques | plaque number, Test 2, 4.1 uM HCMV-20 (virus only: 139) [1]: 17 plaques | plaque number, Test 2, 8.1 uM HCMV-20 (virus only: 139) [1]: 16 plaques | plaque number, Test 2, 16.3 uM HCMV-20 (virus only: 139) [1]: 16 plaques

B2: HCMV-20 scFv antibody displayed on phage (positive phage clone from the mixed scFv phage display library) (scFv)
scFv: B1 scFv
HCMV/control (ELISA signal ratio) [2]: > 8
